Test results: patent US20250215108A1
Where “and” joins values, the source holds several entries; their conditions need not be identical. Equal values may be shown once.

Assays:
[1] = target: SIRPγ on peripheral human CD3+ T cells (human) (UniProt Q9P1W8); test: flow cytometry on peripheral human CD3+ T cells, 10 µg/ml; Exp 1 HV1
[2] = target: SIRPγ on peripheral human CD3+ T cells (human) (UniProt Q9P1W8); test: flow cytometry on peripheral human CD3+ T cells, 10 µg/ml; Exp 1 HV2
[3] = target: recombinant hSIRPa (Sino Biologicals, reference 10975-H08H) (human) (UniProt P78324); test: ELISA (ED50), immobilized hSIRPa, anti-mouse Fc detection
recombinant hSIRPa (Sino Biologicals, reference 10975-H08H) (human), sequence (P78324 other isoform, or with tags, fused parts or gaps H08H H08H limits assumed): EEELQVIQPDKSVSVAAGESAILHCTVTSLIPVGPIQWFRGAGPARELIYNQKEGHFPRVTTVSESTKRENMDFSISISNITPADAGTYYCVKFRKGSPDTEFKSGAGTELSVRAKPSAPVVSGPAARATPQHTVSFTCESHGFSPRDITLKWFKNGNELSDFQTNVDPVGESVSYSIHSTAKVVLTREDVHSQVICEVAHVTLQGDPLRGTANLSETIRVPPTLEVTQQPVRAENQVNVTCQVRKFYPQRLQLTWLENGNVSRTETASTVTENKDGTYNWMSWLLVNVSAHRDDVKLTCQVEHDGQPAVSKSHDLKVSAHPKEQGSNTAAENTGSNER

[4] = target: recombinant hSIRPa-His (Sino Biologicals, reference 11612-H08H) (human) (UniProt P78324); test: SPR (Biacore 3000); SIRPa-His immobilised on a CM5 chip (500 RU), antibody injected; 3 min association, 10 min dissociation
recombinant hSIRPa-His (Sino Biologicals, reference 11612-H08H) (human), sequence (P78324 31-370, form in doubt): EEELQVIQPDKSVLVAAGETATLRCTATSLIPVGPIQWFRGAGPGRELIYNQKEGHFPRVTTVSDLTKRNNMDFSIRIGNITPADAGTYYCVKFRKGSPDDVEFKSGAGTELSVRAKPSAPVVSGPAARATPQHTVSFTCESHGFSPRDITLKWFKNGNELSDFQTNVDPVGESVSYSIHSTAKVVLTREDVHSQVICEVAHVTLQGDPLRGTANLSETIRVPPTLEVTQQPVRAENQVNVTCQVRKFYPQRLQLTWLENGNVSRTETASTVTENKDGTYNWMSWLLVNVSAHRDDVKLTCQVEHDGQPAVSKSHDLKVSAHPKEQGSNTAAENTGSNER

SIRPγ on peripheral human CD3+ T cells (human), sequence (Q9P1W8 29-387): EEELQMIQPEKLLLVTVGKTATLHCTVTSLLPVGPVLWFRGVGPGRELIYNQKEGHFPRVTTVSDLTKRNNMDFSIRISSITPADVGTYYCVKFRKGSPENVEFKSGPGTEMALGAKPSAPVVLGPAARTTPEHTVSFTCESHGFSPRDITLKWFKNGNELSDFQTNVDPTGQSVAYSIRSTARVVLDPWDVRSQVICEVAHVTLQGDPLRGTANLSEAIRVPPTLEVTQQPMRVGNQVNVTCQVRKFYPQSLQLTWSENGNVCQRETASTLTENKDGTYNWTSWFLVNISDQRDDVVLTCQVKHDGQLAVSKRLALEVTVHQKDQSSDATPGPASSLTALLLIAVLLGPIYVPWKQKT

% of positive T-cells [1] [%]	% of positive T-cells [2] [%]	EC50 [3]	Kd [4] [nM]	koff [4] [s⁻¹]	kon [4] [M⁻¹ s⁻¹]	Substance
91.4	98.4					LSB2.20 (specific anti-SIRPγ antibody)
3.72	7.69	0.16 nM and 0.024 µg/mL	38.7	0.000949	24500	SE5A5 (BioLegend BLE323802), antibody recognizing SIRP a/B
			1670	0.01	5980	anti-SIRPa antibody SE7C2 (Santa Cruz sc-23863)
0.87	0.25					anti-SIRPb antibody B4B6
